In series [1] the target is T1, Taq DNA polymerase (UniProt P19821 P19821:1-832). Briefly: cell_free PCR activity after drying, other; indirect functional evidence: aptamer (0.65 pmol/U Taq) preserves qPCR activity after drying with primers/probes and 1 week at 37 C; Wsebi casein Cp 24.0 vs no. To be noted: tags: glycerol free; Roche AptaTaq when complexed with aptamer. As for the experimental part:
The PCR performance of the polymerase after storage and re-solubilization was analyzed with and without detection mix (with or without primers and probes) using two different parameters. The liquid mixtures were dried 16 hours at 200 mbar and stored for 1 week at 37° C. prior to re-solubilization. As a control a liquid mixture without drying was used, too (called liquid reference in the following).
All mixtures were provided within wells of a 384 microtiter plate (Roche Diagnostic GmbH) and after the re-solubilization a PCR run was performed on the LightCycler®480 (Roche Diagnostic GmbH) using the following run protocol: [0123] 5 minutes 95° C. [0124] 10 seconds 95° C., 30 seconds 60° C., 1 second 72° C. (45×) [0125] 10 seconds 40° C.
For orientation: Real-time PCR tracks product formation cycle by cycle.

In series [2] the target is T1, Taq DNA polymerase. In words: indirect functional evidence: 0.5 uM aptamer with 0.8 U/ul Taq preserves qPCR activity after drying with primers/probes and 1 week at 37 C; Wsebi Cp 24.8 vs liquid reference 24.7; 60 mM Tris pH 8.3, 60 mM KCl, 6.4 mM MgCl2; binding not measured directly. Conditions: tags: glycerol free; Roche AptaTaq when complexed with aptamer. The protocol: The PCR performance of the polymerase with both aptamers were analyzed with detection mix (with primers and probes) after storage and re-solubilization using two different parameters. The liquid mixtures were dried 16 hours at 200 mbar and stored for 1 week at 37° C. prior to re-solubilization. As a control a liquid mixture without drying was used, too (called liquid reference in the following).

T1 sequence (P19821 whole entry, one chain of several): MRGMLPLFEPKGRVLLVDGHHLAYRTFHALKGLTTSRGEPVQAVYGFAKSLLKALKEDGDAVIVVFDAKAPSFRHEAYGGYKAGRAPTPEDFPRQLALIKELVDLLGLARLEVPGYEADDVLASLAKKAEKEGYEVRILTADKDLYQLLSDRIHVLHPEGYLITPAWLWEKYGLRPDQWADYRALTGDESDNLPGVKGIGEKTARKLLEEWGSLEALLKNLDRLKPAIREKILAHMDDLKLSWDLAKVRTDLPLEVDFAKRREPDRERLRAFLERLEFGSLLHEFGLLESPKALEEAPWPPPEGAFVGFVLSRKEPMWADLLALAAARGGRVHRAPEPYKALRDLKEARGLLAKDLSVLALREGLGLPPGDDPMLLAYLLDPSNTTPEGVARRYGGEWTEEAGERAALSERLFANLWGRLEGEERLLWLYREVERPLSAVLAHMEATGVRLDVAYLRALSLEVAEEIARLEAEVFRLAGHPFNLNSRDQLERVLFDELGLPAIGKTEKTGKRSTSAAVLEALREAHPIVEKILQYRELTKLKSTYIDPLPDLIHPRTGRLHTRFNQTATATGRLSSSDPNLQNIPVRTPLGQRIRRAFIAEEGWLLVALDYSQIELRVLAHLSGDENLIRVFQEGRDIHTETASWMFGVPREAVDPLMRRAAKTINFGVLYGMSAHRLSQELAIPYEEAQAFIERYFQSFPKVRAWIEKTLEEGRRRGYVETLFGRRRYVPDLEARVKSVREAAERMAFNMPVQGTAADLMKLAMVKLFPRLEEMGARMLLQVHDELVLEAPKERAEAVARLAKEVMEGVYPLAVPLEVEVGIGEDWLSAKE

Regarding CGATCATCTCAGAACATTCTTAGCGTTTTGTTCTTGTGTATGATCG (ssDNA) [NTQ12-46A], the binding result with Taq DNA polymerase [1] is recorded as “binds”.
GATCATCTCAGAACATTCTTAGCGTTTTGTTCTTGTGTATGA (ssDNA) [21-42-P (also printed 21-41-P)]: the binding result with Taq DNA polymerase [2] is “binds”.
